Experiments:
[1] = biological target: T1, human sex hormone-binding globulin (SHBG) (human, UniProt P04278 30-402, O-linked glycan at T36 (native glycosylated form)); experiment: SPR (Biacore T100), mAb captured on anti-mouse IgG, SHBG antigen injected, 1:1 fit, assay 3
T1 construct: Purified human SHBG, the SHBG antigen of the SPR runs, or SHBG in human serum; also called SHBG protein
T1 sequence: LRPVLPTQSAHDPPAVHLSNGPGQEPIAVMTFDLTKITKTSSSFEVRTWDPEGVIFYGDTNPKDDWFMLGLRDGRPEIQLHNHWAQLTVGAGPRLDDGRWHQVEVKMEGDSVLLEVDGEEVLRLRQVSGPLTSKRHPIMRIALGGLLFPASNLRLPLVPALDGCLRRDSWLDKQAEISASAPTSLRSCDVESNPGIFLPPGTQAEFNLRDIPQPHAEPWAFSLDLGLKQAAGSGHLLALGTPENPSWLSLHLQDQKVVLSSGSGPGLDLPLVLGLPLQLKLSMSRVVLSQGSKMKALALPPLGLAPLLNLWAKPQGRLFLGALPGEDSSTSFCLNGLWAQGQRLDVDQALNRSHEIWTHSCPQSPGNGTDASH
Experimental: (§1) Surface plasmon resonance experiments were performed on a BiacoreT100 to characterize the anti-SHBG and anti-IBP4 antibodies. Anti-mouse-IgG antibody was amine coupled to ˜500 RU on a C1 sensor chip using standard NHS/EDC activation. Test monoclonal antibodies were captured on the anti-mouse-IgG surfaces. The binding for the Sex Hormone Binding Globulin Antigen to anti-SHBG variant antibodies 4G10.F8 and 13C9.E5 were measured in a multi-cycle kinetic mode. Binding studies were performed in PBS buffer+0.05% P20+3 mM EDTA at 25 degrees C. SHBG was captured for 1 minute at 200 nM and regenerated with 1/100 H3PO4 after each cycle. SHBG was captured to similar densities on 2 different flow cells followed by an injection of the SHBG antigen in a 3-fold titration series up to 600 nM over the two surfaces. The responses were processed by subtracting the buffer injection to correct for drift. The data sets fit well to a simple 1:1 interaction model using SCRUBBER (Biologic Software Pty Ltd). The antigen concentration series was tested three times over each surface, giving rise to the kinetic an affinity parameters summarized below.

[2] = biological target: T1, human sex hormone-binding globulin …; experiment: SPR (Biacore T100), mAb captured on anti-mouse IgG, SHBG antigen injected, average of 3 assays
Experimental: as §1

[3] = biological target: T1, human sex hormone-binding globulin …; experiment: SPR (Biacore T100), mAb captured on anti-mouse IgG, SHBG antigen injected, 1:1 fit, assay 3; assay 3
Experimental: as §1

[4] = biological target: T1, human sex hormone-binding globulin …; experiment: SPR (Biacore T100), mAb captured on anti-mouse IgG, SHBG antigen injected, 1:1 fit, assay 2
Experimental: as §1

[5] = biological target: T1, human sex hormone-binding globulin …; experiment: Biacore, hybridoma supernatant
[6] = biological target: T1, human sex hormone-binding globulin …; experiment: SPR (Biacore T100), mAb captured on anti-mouse IgG, SHBG antigen injected, 1:1 fit, assay 1
Experimental: as §1

[7] = biological target: T2, C-terminal IBP4 fragment (amino acids 157-258) (human, UniProt P22692 157-258); experiment: SPR (Biacore T100), mAb amine-coupled to C1 chip, CT-IBP4 injected, 1:1 fit, second surface assay 2
T2 construct: also called CT-IBP4; C-term IBP4
T2 sequence: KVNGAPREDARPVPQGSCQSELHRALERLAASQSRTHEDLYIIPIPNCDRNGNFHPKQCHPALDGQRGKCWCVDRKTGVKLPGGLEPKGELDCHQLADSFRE
Experimental: (§2) For this reason, anti-IBP4 antibodies were directly amine coupled using standard NHS/EDC coupling to a C1 sensor chip. Variant 5B3.G9 was coupled on two surfaces at 350 RU and the other at 150 RU. […] Antibodies were measured in a multi-cycle kinetic mode. Binding studies were performed in PBS buffer+0.05% P20+3 mM EDTA at 25 degrees C. CT-IBP4 was tested in a 3-fold concentration series up to 333 nM and injected at 100 uL/min for 3 minutes followed by a 10 minute dissociation phase. Surfaces were regenerated with 1/100 H3PO4 after each cycle. The antigen binding responses were processed by subtracting the signal from a reference surface with no antibody captured along with a buffer injection. The processed response data were globally fit to a simple 1:1 interaction using SCRUBBER (Biologic Software Pty Ltd). The antigen concentration series was tested three times over each surface, giving rise to the kinetic an affinity parameters summarized in the tables below.

[8] = biological target: T2, C-terminal IBP4 fragment (amino acids …); experiment: SPR (Biacore T100), mAb amine-coupled to C1 chip, CT-IBP4 injected, 1:1 fit, first surface assay 3
Experimental: as §2

[9] = biological target: T2, C-terminal IBP4 fragment (amino acids …); experiment: SPR (Biacore T100), mAb amine-coupled to C1 chip, CT-IBP4 injected, average
Experimental: as §2

[10] = biological target: T2, C-terminal IBP4 fragment (amino acids …); experiment: SPR (Biacore T100), mAb amine-coupled to C1 chip, CT-IBP4 injected, 1:1 fit, first surface assay 2
Experimental: as §2

[11] = biological target: T2, C-terminal IBP4 fragment (amino acids …); experiment: SPR (Biacore T100), mAb amine-coupled to C1 chip, CT-IBP4 injected, 1:1 fit, second surface assay 3
Experimental: as §2

[12] = biological target: T2, C-terminal IBP4 fragment (amino acids …); experiment: SPR (Biacore T100), mAb amine-coupled to C1 chip, CT-IBP4 injected, 1:1 fit, second surface assay 1
Experimental: as §2

[13] = biological target: T2, C-terminal IBP4 fragment (amino acids …); experiment: SPR (Biacore T100), mAb amine-coupled to C1 chip, CT-IBP4 injected, 1:1 fit, first surface assay 1
Experimental: as §2

[14] = biological target: T2, C-terminal IBP4 fragment (amino acids …); experiment: SPR (Biacore T100), mAb amine-coupled to C1 chip, CT-IBP4 injected, 1:1 fit, assay 3
Experimental: as §2

[15] = biological target: T2, C-terminal IBP4 fragment (amino acids …); experiment: SPR (Biacore T100), mAb amine-coupled to C1 chip, CT-IBP4 injected, 1:1 fit, assay 2
Experimental: as §2

[16] = biological target: T2, C-terminal IBP4 fragment (amino acids …); experiment: SPR (Biacore T100), mAb amine-coupled to C1 chip, CT-IBP4 injected, 1:1 fit, assay 1
Experimental: as §2

B1: anti-SHBG antibody clone variant 4G10.F8 (antibody, mouse IgG2a, kappa)
heavy: QVQLQQPGAELVKPGASVKMSCKASGYTFTGYWMHWVKQRPGQGLEWIGVIDPSTGYTTYNEKFKGKATLTVDTSSNTAYMQLSSLTSEDSAVYYCTREPLVTADFEYWGQGTTLTVSSAKTTAPSVYPLAPVCGDTTGSSVTLGCLVKGYFPEPVTLTWNSGSLSSGVHTFPAVLQSDLYTLSSSVTVTSSTWPSQSITCNVAHPASSTKVDKKIEPRGPTIKPCPPCKCPAPNLLGGPSVFIFPPKIKDVLMISLSPIVTCVVVDVSEDDPDVQISWFVNNVEVHTAQTQTHREDYNSTLRVVSALPIQHQDWMSGKEFKCKVNNKDLPAPIERTISKPKGSVRAPQVYVLPPPEEEMTKKQVTLTCMVTDFMPEDIYVEWTNNGKTELNYKNTEPVLDSDGSYFMYSKLRVEKKNWVERNSYSCSVVHEGLHNHHTTKSFSRTPG
light: DIVMTQSQKFMSTSVGDRISVTCKASQNVDTNVAWYRQKPGQSPKALIYSASYRFSGVPDRFTGSGSGTDFTLTISTFQSEDLAEYFCQQYDSYPYTFGGGTKLEIKRADAAPTVSIFPPSSEQLTSGGASVVCFLNNFYPKDINVKWKIDGSERQNGVLNSWTDQDSKDSTYSMSSTLTLTKDEYERHNSYTCEATHKTSTSPIVKSFNRNEC
notes: Mouse monoclonal; variant form expressed from a standard backbone in CHO cells; also called SHBG (4G10.F8) Anti SHBG v1; SHBG #6
- Kd [1]: 3.66 nM
- kon [1]: 39600 M⁻¹ s⁻¹
- Kd [2]: 2 nM
- koff [2]: 9e-05 s⁻¹
- kon [2]: 42000 M⁻¹ s⁻¹
- koff [3]: 0.000145 s⁻¹
- Kd [4]: 1.91 nM
- koff [4]: 8.37e-05 s⁻¹
- kon [4]: 43900 M⁻¹ s⁻¹
- Kd [5]: 0.95 nM
- koff [5]: 6.2e-05 s⁻¹
- kon [5]: 65000 M⁻¹ s⁻¹
- Kd [6]: 1.05 nM
- koff [6]: 4.57e-05 s⁻¹
- kon [6]: 43700 M⁻¹ s⁻¹

B2: anti-IBP4 antibody clone variant 5B3.G9 (antibody, mouse IgG1, kappa)
heavy: EVQLQQSGPELVKPGASAKISCKASGYTFTDYYMNWVKQSHGKSLEWIGDINPNNGGSAYNQKFKGKATLTVDKSSSTAYMELRSLTSEDSAVYYCARWDGGFDYWGQGTTLTVSSAKTTPPSVYPLAPGSAAQTNSMVTLGCLVKGYFPEPVTVTWNSGSLSSGVHTFPAVLQSDLYTLSSSVTVPSSTWPSQTVTCNVAHPASSTKVDKKIVPRDCGCKPCICTVPEVSSVFIFPPKPKDVLTITLTPKVTCVVVDISKDDPEVQFSWFVDDVEVHTAQTKPREEQINSTFRSVSELPIMHQDWLNGKEFKCRVNSAAFPAPIEKTISKTKGRPKAPQVYTIPPPKEQMAKDKVSLTCMITNFFPEDITVEWQWNGQPAENYKNTQPIMDTDGSYFVYSKLNVQKSNWEAGNTFTCSVLHEGLHNHHTEKSLSHSPG
light: DIVMTQSQKFMSTSVRDRVSVTCKASQNVGTNVAWYQQKPGQSPKALIYSASYRYSGVPDRFTGSGSGTAFTLTISNVQSEDLAEYFCQQYNIYPLTFGAGTKLELKRADAAPTVSIFPPSSEQLTSGGASVVCFLNNFYPKDINVKWKIDGSERQNGVLNSWTDQDSKDSTYSMSSTLTLTKDEYERHNSYTCEATHKTSTSPIVKSFNRNEC
notes: Mouse monoclonal; variant form expressed in CHO cells; also called IBP4 (5B3.G9) V1; IBP4-5B3.G9
- Kd [7]: 17.1 nM
- koff [7]: 0.0035 s⁻¹
- kon [7]: 204000 M⁻¹ s⁻¹
- Kd [8]: 43.1 nM
- koff [8]: 0.00466 s⁻¹
- kon [8]: 108000 M⁻¹ s⁻¹
- Kd [9]: 31 nM
- koff [9]: 0.0041 s⁻¹
- kon [9]: 150000 M⁻¹ s⁻¹
- Kd [10]: 37 nM
- koff [10]: 0.00419 s⁻¹
- kon [10]: 113000 M⁻¹ s⁻¹
- Kd [11]: 22.3 nM
- koff [11]: 0.00392 s⁻¹
- kon [11]: 176000 M⁻¹ s⁻¹
- Kd [12]: 25.8 nM
- koff [12]: 0.00404 s⁻¹
- kon [12]: 157000 M⁻¹ s⁻¹
- Kd [13]: 38.2 nM
- koff [13]: 0.00447 s⁻¹
- kon [13]: 117000 M⁻¹ s⁻¹

B3: anti-IBP4 antibody clone variant 7D6.G4 (antibody, mouse IgG1, kappa, V domains shown)
VH: EVQLQQSGPELVKPGASVKISCKASGYTFTDYYMNWVKQSHGKSLEWIGDINPNNGGSAYNQKFKGKATLTVDKSSSTAYMELRSLTSEDSAVYYCARWDGGFDYWGQGTTLTVSS
VL: DIVMTQSQKFMSTSVRDRVSVTCKASQNVGTNVAWYQQKPGQSPKALIYSASYRYSGVPDRFTGSGSGTDFTLTISNVQSEDLAEYFCQQYNSYPLTFGAGTKLELKR
notes: Mouse monoclonal; variant form; also called IBP4 (7D6.G4) V2; IBP4-7D6.G4
- Kd [14]: 75.9 nM
- koff [14]: 0.0128 s⁻¹
- kon [14]: 168000 M⁻¹ s⁻¹
- Kd [15]: 56.1 nM
- koff [15]: 0.0119 s⁻¹
- kon [15]: 211000 M⁻¹ s⁻¹
- Kd [9]: 76 nM
- koff [9]: 0.013 s⁻¹
- kon [9]: 180000 M⁻¹ s⁻¹
- Kd [16]: 96.2 nM
- koff [16]: 0.0146 s⁻¹
- kon [16]: 152000 M⁻¹ s⁻¹
